Drawing on PMC6787100, “Endophyte Bacillus subtilis evade plant defense by producing lantibiotic subtilomycin to mask self-produced flagellin” (Communications Biology, 2019), this text covers Kd for three molecules.

First the molecules themselves.
B1: ∆Hag (flg22), Hag with the flg22 region deleted (domain or fragment)
chain: not shown
B2: flg22 (Bs), synthetic flg22 peptide of B. subtilis Hag (peptide)
chain: EKLSSGLRINRAGDDAAGLAIS
B3: 6× His-tagged Hag protein (natural protein)
chain: not shown
modifications: labelled with Cy5-NHS ester (in the MST assay only)

In the experiment the target is T1, lantibiotic subtilomycin (Bacillus subtilis BSn5, lantibiotic; ApnB carries out the essential dehydration reaction of its biosynthesis; the modified residues are not listed).
T1 construct: subtilomycin, the lantibiotic made from the structural peptide encoded by apnA of Bacillus subtilis BSn5; exact molecular weight 3234.36 Da; Purified subtilomycin holds oligomers (trimers, tetramers, pentamers); source: B. subtilis BSn5 ∆hag mutant, 30% ammonium sulfate precipitate of culture supernatant, purified by prep-HPLC; also native in Apn5 (30% ammonium sulfate precipitate of BSn5 culture …)
As to the kind of experiment: MST; protein labelled with Cy5-NHS ester at fixed concentration, serial 2x dilutions of unlabelled subtilomycin (1 mM set as highest; 500 μM highest final in the legend); PBS pH 8.0; MST power 20%, LED power 60%; Monolith NT.115; constants called ambiguous, based on total subtilomycin concentration. As to conditions: both partners purified.
B1: binding was characterised by a dissociation constant (Kd) of 66.4 ± 9.11 µM.

With B2, binding was characterised by a dissociation constant (Kd) of 169 ± 10.4 µM.

As for B3, the Kd was 18.8 ± 4.15 µM.

In general, Kd refers to the constant that tells how readily two partners part at equilibrium. A high value points to weaker binding.
